Source: patent US12428627B2, “Mutant p-hydroxyphenylpyruvate dioxygenase, and coding nucleic acid and use thereof” (Qingdao Kingagroot Chemical Compound Co., Ltd., priority 2018, dated 2025)
Residue numbers refer to the chain shown, from its start. Names and notes keep the numbering of the source.

System: rice HPPD (OsHPPD)
Test: Color reaction of recombinant E. coli expressing wild-type or mutant rice HPPD, cultured in 96-well plate in medium containing an HPPD-inhibiting herbicide and tyrosine
Type: cell-based, Oryza sativa
Parameters: key to relative resistance to Tembotrione / relative resistance to Benzuofucaotong metabolic product / relative resistance to Huanbifucaotong / relative resistance to Topramezone / relative resistance to Mesotrione / resistance to Tembotrione / resistance to Benzucfucaotong metabolic product / resistance to Huanbifucaotong / resistance to Topramezone / resistance to Mesotrione: The more the plus sign “+”, the deeper the color and the higher the resistance/tolerance as compared to the wild type
From the text: The rice full-length OsHPPD enzyme has 446 amino acids and its amino acid sequence is set forth in SEQ ID NO: 2, wherein the amino acids 1-50 are considered to constitute a signal peptide which is responsible for directing into chloroplast (Siehl et al. Plant Physiol. 2014 November; 166(3): 1162-1176). Therefore, from the amino acid at the 51-position to the amino acid at the […], a saturated random mutation was made for each amino acid. This was achieved by performing a bridge PCR by using a primer containing a coding sequence of an amino acid to be mutated into NNK and another suitable conventional primer. In NNK, N represented A/T/G/C and K represented G/T, and the NNK codon could encode any one of 20 amino acids or terminators. Accordingly, this was a saturated mutation. Please see: Kille S. Acevedo-Rocha C G, Parra L P, Zhang Z G, Opperman D J, Reetz M T, Acevedo J P (2013) Reducing codon redundancy and screening effort of combinatorial protein libraries created by saturation mutagenesis. ACS Synth Biol 2(2):83-92; Directed Evolution Library Creation: methods and protocols 2nd ed. Edited by Elizabeth M. J. Gillam, Janine N. Copp and David F. Ackerley New York, NY United States: Springer, 2014. doi:10.1007/978-1-4939-1053-3. A large number of mutants would be produced. The mutant was cloned into a linearized pET-44a vector and transformed into E. co/i, which was cultivated by using a 96-well plate in a 2×YT culture solution containing an HPPD-inhibiting herbicide (such as 1-2 μM tembotrione) and a substrate tyrosine (1 g/L) in a shaker at 28° C. and 150 rpm for 24 hours for expression, and then the mutants were rapidly screened out according to their color browning. By using the method, 10 single amino acid mutants, A103S, H141R, H141 K, H141T, A165V, V191I, R220K, G342D, D370N and K410I, were screened out. The color reaction of these resistant mutants in the presence of tembotrione and the metabolic product of benzuofucaotong relative to that of the wild type was as shown in FIG. 1.
Similarly, the color reaction of these mutants in the presence of the other three HPPD-inhibiting herbicides huanbifucaotong, topramezone and mesotrione were determined, see FIGS. 2 and 3. The resistance/tolerance of each of the mutants to the five herbicides was roughly estimated on the basis of color changes thereof and the results were shown in Table 1. The more the plus sign “+”, the deeper the color and the higher the resistance/tolerance as compared to the wild type.
HPPD-inhibiting herbicides inhibited HPPD enzymatic activity. When tyrosine was converted to 4-hydroxyphenylpyruvate (HPP) under the action of tyrosine transaminase, the inactivated HPPD was unable to oxidize 4-hydroxyphenylpyruvate into homogentisic acid (HGA). HGA was dark brown. Therefore, if an HPPD mutant was resistant to or tolerant to an herbicide, after expressed in E. coli, the mutant could also oxidize 4-hydroxyphenylpyruvate into homogentisic acid, whereby dark brown appeared. Therefore, E. coli was cultured in a 2×YT culture medium containing a HPPD-inhibiting herbicide and a substrate tyrosine using a 96-well plate to express HPPD, and these mutants were rapidly screened according to their color changes. • (1) Preparation of 2×YT culture medium (1 g/L L-Tyr, 0.1 mM IPTG, 0.01 mM MnCl2 and 100 mg/L ampicillin were added). • (2) 0.1 mL of the above medium was added to each well of a 96-well plate, and the expression clones of OsHPPD wild type or mutant (OsHPPD Mut) from the E. coli plate obtained by the above transformation were subjected to liquid culture in the 96-well plate. HPPD inhibitors having a final concentration of 1 μM-20 μM were added according to different selected agents, for example, the final concentration of tembotrione was 1.7 μM while mesotrione was 10 μM. […]

B1: G342D: single-site mutant rice HPPD (protein, listed as Oryza sativa)
chain: MPPTPTPTATTGAVSAAAAAGENAGFRLVGHRRFVRANPRSDRFQALAFHHVELWCADAASAAGRFAFALGAPLAARSDLSTGNSAHASLLLRSASVAFLFTAPYGGDHGVGADAATTASIPSFSPGAARRFAADHGLAVHAVALRVADAADAFRASVAAGARPAFQPADLGGGFGLAEVELYGDVVLRFVSHPDGADAPFLPGFEGVSNPGAVDYGLRRFDHVVGNVPELAPVAAYISGFTGFHEFAEFTAEDVGTAESGLNSVVLANNAETVLLPLNEPVHGTKRRSQIQTYLDHHGGPGVQHIALASDDVLGTLREMRARSAMGGFEFLAPPPPNYYDDVRRRAGDVLSEEQINECQELGVLVDRDDQGVLLQIFTKPVGDRPTFFLEMIQRIGCMEKDESGQEYQKGGCGGFGKGNFSELFKSIEEYEKSLEAKQAPTVQGS
modifications: The amino acid sequence of Wild-Type rice HPPD protein (OsHPPD _WT)
color change compared with wild type (tembotrione and metabolic product of benzuofucaotong, FIG. 1): obviously deeper than that of the wild type

B2: 103: single-site mutant rice HPPD, A103S (protein)
chain: B1 chain with A57S, A103S, D342G
modifications: The amino acid sequence of rice HPPD mutant (OsHPPD_A103S)
notes: single-site mutant rice HPPD, A103S
relative resistance to Huanbifucaotong (Table 1, single-site mutants, estimated from color change, wild type = +): +

B3: N338S/G342D/R346C (protein)
chain: B1 chain with N338S, R346C
resistance ranking in color reaction (compound 101): highest resistance
